Publication PMC2267168, “Competition between Delta and the Abruptex domain of Notch” (BMC Developmental Biology, 2008)
Numbering of substitutions follows the chain as printed. Names may count otherwise. Read-outs that look alike come from different tables or passages of the source. Blank lines part the entries; values can stand above or below the binder they belong to.

Assays:
N11-14:V5:His [1] = molecular target: T1, N11-14:V5:His (Drosophila, UniProt P07207 447-605); assay: ELISA
T1 chain: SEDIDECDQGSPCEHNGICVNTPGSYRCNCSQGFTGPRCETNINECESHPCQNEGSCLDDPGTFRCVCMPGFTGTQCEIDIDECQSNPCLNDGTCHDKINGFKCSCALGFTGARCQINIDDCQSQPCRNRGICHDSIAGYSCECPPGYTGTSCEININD

N11-14spl:V5:His [2] = molecular target: T2, N11-14spl:V5:His (Drosophila, UniProt P07207 447-605, I578T); assay: ELISA
T2 sequence: T1 chain with I132T

N11-20:V5:His [3] = molecular target: T3, N11-20:V5:His (Drosophila, UniProt P07207 447-832); assay: ELISA; pH 5.4
T3 chain: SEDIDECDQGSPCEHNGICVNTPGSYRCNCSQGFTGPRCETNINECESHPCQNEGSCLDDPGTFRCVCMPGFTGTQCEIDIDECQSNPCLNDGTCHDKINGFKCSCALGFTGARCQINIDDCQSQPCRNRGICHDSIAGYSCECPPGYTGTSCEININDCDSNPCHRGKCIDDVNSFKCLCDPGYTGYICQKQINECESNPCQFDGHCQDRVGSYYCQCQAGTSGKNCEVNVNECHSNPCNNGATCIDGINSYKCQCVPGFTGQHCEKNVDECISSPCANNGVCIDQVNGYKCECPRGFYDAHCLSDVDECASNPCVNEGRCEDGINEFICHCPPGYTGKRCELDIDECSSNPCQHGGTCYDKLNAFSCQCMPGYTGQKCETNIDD

N11-20:V5:His [4] = molecular target: T3, N11-20:V5:His; assay: ELISA; 200 ng His-tagged protein adsorbed to a 96-well plate at 4°C overnight, blocked with 3% BSA; purified Fc fusion added in TBS (10 mM Tris-Cl pH 8.0, 150 mM NaCl, 1 mM CaCl2) for 2 h; detected with HRP anti-human IgG; half-maximal binding ('Kd') fitted with Prizm, said not to be a true Kd
N11-20:V5:His [5] = molecular target: T3, N11-20:V5:His; assay: ELISA
N11-20:V5:His [6] = molecular target: T3, N11-20:V5:His; assay: ELISA; pH 7.4
N11-14:V5:His [7] = molecular target: T1, N11-14:V5:His; assay: ELISA
N11-20:V5:His [8] = molecular target: T3, N11-20:V5:His; assay: ELISA
N11-14:V5:His [9] = molecular target: T1, N11-14:V5:His; assay: ELISA
N11-14spl:V5:His [10] = molecular target: T2, N11-14spl:V5:His; assay: ELISA; remark: listed apart in the source
N21-30:V5:His = molecular target: T4, N21-30:V5:His (Drosophila, UniProt P07207 827-1224); assay: ELISA; competition: 10 ng (2.74 nM) N21-30:Fc or 100 ng (23.2 nM) Dl:Fc on adsorbed N11-20, with increasing amounts of soluble Dl:V5:His or N21-30:V5:His; conditions: both partners purified
T4 construct: source: Drosophila Schneider cells, transfected, secreted; purified from conditioned medium (ProBond resin)
T4 sequence (looked up): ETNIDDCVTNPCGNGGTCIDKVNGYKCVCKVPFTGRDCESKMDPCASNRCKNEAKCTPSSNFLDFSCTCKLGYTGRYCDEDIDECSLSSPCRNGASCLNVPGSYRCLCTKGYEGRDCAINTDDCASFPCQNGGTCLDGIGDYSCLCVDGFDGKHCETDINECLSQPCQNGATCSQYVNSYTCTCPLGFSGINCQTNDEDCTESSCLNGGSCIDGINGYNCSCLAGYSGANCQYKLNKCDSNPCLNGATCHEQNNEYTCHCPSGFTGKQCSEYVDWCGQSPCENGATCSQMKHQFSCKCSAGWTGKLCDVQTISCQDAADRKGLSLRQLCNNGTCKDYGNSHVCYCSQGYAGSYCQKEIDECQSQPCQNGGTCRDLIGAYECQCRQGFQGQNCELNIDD

N21-30:Fc [11] = molecular target: T5, N21-30:Fc (Drosophila, UniProt P07207 827-1224); assay: as above; conditions: both partners purified
T5 construct: also called Abruptex region; EGF repeat 21-30 region of Notch; source: Drosophila Schneider cells, transfected, secreted; purified from conditioned medium (Protein A beads); not shown: Fc (human IgG), C-terminal, kept
T5 sequence (looked up): T4 sequence (looked up)

N21-30:Fc [12] = molecular target: T5, N21-30:Fc; assay: ELISA; as the plate assay, at pH 7.4 in citric acid/Na2HPO4 or Tris maleate/NaOH buffer in place of Tris pH 8.0; conditions: both partners purified

B1: Dl:Fc (Fc fusion)
chain: QVHSSGSFELRLKYFSNDHGRDNEGRCCSGESDGATGKCLGSCKTRFRVCLKHYQATIDTTSQCTYGDVITPILGENSVNLTDAQRFQNKGFTNPIQFPFSFSWPGTFSLIVEAWHDTNNSGNARTNKLLIQRLLVQQVLEVSSEWKTNKSESQYTSLEYDFRVTCDLNYYGSGCAKFCRPRDDSFGHSTCSETGEIICLTGWQGDYCHIPKCAKGCEHGHCDKPNQCVCQLGWKGALCNECVLEPNCIHGTCNKPWTCICNEGWGGLYCNQDLNYCTNHRPCKNGGTCFNTGEGLYTCKCAPGYSGDDCENEIYSCDADVNPCQNGGTCIDEPHTKTGYKCHCANGWSGKMCEEKVLTCSDKPCHQGICRNVRPGLGSKGQGYQCECPIGYSGPNCDLQLDNCSPNPCINGGSCQPSGKCICPAGFSGTRCETNIDDCLGHQCENGGTCIDMVNQYRCQCVPGFHGTHCSSKVDLCLIRPCANGGTCLNLNNDYQCTCRAGFTGKDCSVDIDECSSGPCHNGGTCMNRVNSFECVCANGFRGKQCDE
Kd (N11-14:V5:His [1]): 16.6 nM
Kd (N11-14spl:V5:His [2]): 23.4 nM
Kd (N11-20:V5:His [3]): 4.58 nM
EC50 (N11-20:V5:His [4]): 1.87 nM
Kd (N11-20:V5:His [5]): 25.1 nM
Kd (N11-20:V5:His [6]): 29.8 nM

B3: N26-30:Fc (Fc fusion)
chain: QTNDEDCTESSCLNGGSCIDGINGYNCSCLAGYSGANCQYKLNKCDSNPCLNGATCHEQNNEYTCHCPSGFTGKQCSEYVDWCGQSPCENGATCSQMKHQFSCKCSAGWTGKLCDVQTISCQDAADRKGLSLRQLCNNGTCKDYGNSHVCYCSQGYAGSYCQKEIDECQSQPCQNGGTCRDLIGAYECQCRQGFQGQNCELNIDD
modifications: Fc-dimerised (Fc left out); secreted from S2 cells, O-fucosylation predicted. The forward primer (Q-T-N-D-E-D-C) overlaps the reverse primer ending at Asp1025, so the printed Gln1000 is Gln1020
Kd (N11-14:V5:His [7]): 2.81 nM

B4: N21-25:Fc (Fc fusion)
chain: ETNIDDCVTNPCGNGGTCIDKVNGYKCVCKVPFTGRDCESKMDPCASNRCKNEAKCTPSSNFLDFSCTCKLGYTGRYCDEDIDECSLSSPCRNGASCLNVPGSYRCLCTKGYEGRDCAINTDDCASFPCQNGGTCLDGIGDYSCLCVDGFDGKHCETDINECLSQPCQNGATCSQYVNSYTCTCPLGFSGINCQTNDED
Kd (N11-14:V5:His [7]): 2.77 nM
Kd (N11-20:V5:His [8]): 2.79 nM

B7: N11-14:V5:His (domain or fragment, Drosophila, UniProt P07207 447-605, looked up)
chain: T1 chain
notes: also called N11-4:V5:His; EGF repeats 11-14; source: Drosophila Schneider cells, transfected, secreted; purified from conditioned medium (ProBond resin)
binding result (N21-30:Fc [12]): binds

B8: N11-14spl:V5:His (domain or fragment, Drosophila, UniProt P07207 447-605, looked up)
chain: T1 chain with I132T
notes: Notch, Drosophila, EGF repeats 11-14 with the I578T change of the split (spl) allele in EGF repeat 14; limits as N11-14, Ser447 to Asp605; also called split mutant; source: Drosophila Schneider cells, transfected, secreted; purified from conditioned medium (ProBond resin)
binding result (N21-30:Fc [12]): binds

Next, values leading:

Kd (N11-14:V5:His [7]): 12.6 nM
B2: N22-27:Fc (Fc fusion)
chain: KMDPCASNRCKNEAKCTPSSNFLDFSCTCKLGYTGRYCDEDIDECSLSSPCRNGASCLNVPGSYRCLCTKGYEGRDCAINTDDCASFPCQNGGTCLDGIGDYSCLCVDGFDGKHCETDINECLSQPCQNGATCSQYVNSYTCTCPLGFSGINCQTNDEDCTESSCLNGGSCIDGINGYNCSCLAGYSGANCQYKLNKCDSNPCLNGATCHEQNNEYTCHCPSGFTGKQCS

Kd (N11-20:V5:His [3]): 34 nM
Kd (N11-14:V5:His [7]): 5.42 nM
Kd (N11-20:V5:His [8]): 4.5 nM
Kd (N11-20:V5:His [5]): 27.5 nM
Kd (N11-14:V5:His [9]): 21.3 nM
Kd (N11-14spl:V5:His [10]): 28.9 nM
Kd (N11-20:V5:His [6]): 16.4 nM
B5: N21-30:Fc (Fc fusion)
chain: T4 sequence (looked up)

binding result (N21-30:V5:His): binds
binding result (N21-30:Fc [11]): binds
B6: N11-20:V5:His (domain or fragment, Drosophila, UniProt P07207 447-832, looked up)
chain: T3 chain
notes: also called EGF repeats 11-20 of the N extracellular domain; source: Drosophila Schneider cells, transfected, secreted; purified from conditioned medium (ProBond resin)
